Experimental data: patent US20230220057A1 (STAIDSON BEIJING BIOPHARMACEUTICALS, published 2023)

Biological target: recombinantly produced human-NGF (human, UniProt P01138 122-241, limits assumed)
Test: ELISA, human NGF coated, IgG titrated
Method: NGF binding ELISA assay: In human NGF binding ELISA, Corning 3366 high binding 96 well plates were coated with recombinantly produced human-NGF at 1 μg per ml, 50 μl/well in 1×PBS, and incubated overnight at 4° C. The plates were washed and blocked with 250 μl of 1×PBS/1% BSA at least 30 minutes at room temperature. 50 μl of culture supernatants, after 1:1 diluted by the PBS/BSA diluent, or the purified antibodies diluted serially from a certain concentration with the diluent, were added per well, and incubated at 37° C. for 2 hours. After washing, a secondary antibody, goat anti-human IgG Fc AP (Southern biotech) was applied at a dilution of 1:3000 in PBS/BSA. The plates were incubated for 1 hour at RT and washed. After adding the PNPP substrate, the ODs at 405 nm were read.
NGF binding ELISA assay: NGF binding ELISA assay was performed as described in Example 1.

recombinantly produced human-NGF, sequence (P01138 122-241 limits assumed): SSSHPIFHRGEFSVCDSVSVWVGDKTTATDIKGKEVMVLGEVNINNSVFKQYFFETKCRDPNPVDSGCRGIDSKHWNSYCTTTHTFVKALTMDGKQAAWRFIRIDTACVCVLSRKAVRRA

Binder	EC50 [ng/mL]
Ab1 (antibody, human IgG1, V domains shown, Lead antibody; also called Abl) VH: EVQLVQSGAEVKKPGATVKISCKVSGYTFITYWISWVQQAPGKGLEWMGAIDPSDSDARYSPSFQGRVTITADTSTDTAYMELSSLRSEDTAVYYCAKSDPGYSGYSLLYGFDSWGQGTLVTVSS VL: DIVMTQTPLSSPVTLGQPASISCRSSQSLVQRNGNTYLSWLQQRPGQPPRLLIYQVSNRYSGVPDRFSGSGAGTDFTLKISRVEAEDVGVYYCGQGAHLPLTFGQGTKVEIK	0.0185
Ab7 (antibody, human IgG1, V domains shown) VH: EVQLVQSGAEVKKPGATVKISCKVSGYTFITYWISWVQQAPGKGLEWMGAIDPSDSDARYSPSFQGRVTITADTSTDTAYMELSSLRSEDTAVYYCAKSDPGYSGYSLLYGFDSWGQGTLVTVSS VL: DIVMTQSPLSLPVTLGQPASISCRSSQSLVQRNGNTYLSWFQQRPGQSPRLLIYQVSNRYSGVPDRFSGSGSGTDFTLKISRVEAEDVGVYYCGQGAHLPLTFGQGTKVEIK	0.00988
Ab8 (antibody, human IgG1, V domains shown) VH: EVQLVQSGAEVKKPGATVKISCKVSGYTFITYWISWVQQAPGKGLEWMGAIDPSDSDARYSPSFQGRVTITADTSTDTAYMELSSLRSEDTAVYYCAKSDPGYSGYSLLYGFDSWGQGTLVTVSS VL: DIVMTQSPLSLPVTLGQPASISCRSSQSLVQRNGNTYLSWYQQRPGQSPRLLIYQVSNRYSGVPDRFSGSGSGTDFTLKISRVEAEDVGVYYCGQGAHLPLTFGQGTKVEIK	0.0205
Ab11 (antibody, human IgG1, V domains shown) VH: EVQLVQSGAEVKKPGATVKISCKVSGYSFITYWISWVQQAPGKGLEWMGAIDPSDSDARYSPSFQGRVTITADTSTDTAYMELSSLRSEDTAVYYCAKSDPGYSGYSLLYGFDSWGQGTLVTVSS VL: DIVMTQTPLSSPVTLGQPASISCRSSQSLVQRNGNTYLSWLQQRPGQPPRLLIYQVSNRYSGVPDRFSGSGAGTDFTLKISRVEAEDVGVYYCGQGAHLPLTFGQGTKVEIK	0.032
Ab9 (antibody, human IgG1, V domains shown) VH: EVQLVQSGAEVKKPGATVKISCKVSGYTFITYWISWVQQAPGKGLEWMGAIDPSDSDARYSPSFQGRVTITADTSTDTAYMELSSLRSEDTAVYYCAKSDPGYSGYSLLYGFDSWGQGTLVTVSS VL: DIVMTQSPLSLPVTLGQPASISCRSSQSLVQRNGNTYLSWYQQRPGQPPRLLIYQVSNRYSGVPDRFSGSGSGTDFTLKISRVEAEDVGVYYCGQGAHLPLTFGQGTKVEIK	0.0876
Ab3 (antibody, human IgG1, V domains shown) VH: EVQLVQSGAEVKKPGATVKISCKVSGYTFITYWISWVQQAPGKGLEWMGAIDPSDSDARYSPSFQGRVTITADTSTDTAYMELSSLRSEDTAVYYCAKSDPGYSGYSLLYGFDSWGQGTLVTVSS VL: DVVMTQSPLSLPVTLGQPASISCRSSQSLVQRNGNTYLSWFQQRPGQSPRLLIYQVSNRYSGVPDRFSGSGSGTDFTLKISRVEAEDVGVYYCGQGAHLPLTFGQGTKVEIK	0.017
Ab5 (antibody, human IgG1, V domains shown) VH: EVQLVQSGAEVKKPGATVKISCKVSGYTFITYWISWVQQAPGKGLEWMGAIDPSDSDARYSPSFQGRVTITADTSTDTAYMELSSLRSEDTAVYYCAKSDPGYSGYSLLYGFDSWGQGTLVTVSS VL: DVVMTQSPLSLPVTLGQPASISCRSSQSLVQRNGNTYLSWYQQRPGQPPRLLIYQVSNRYSGVPDRFSGSGSGTDFTLKISRVEAEDVGVYYCGQGAHLPLTFGQGTKVEIK	0.0139
Ab2 (antibody, human IgG1, V domains shown) VH: EVQLVQSGAEVKKPGATVKISCKVSGYTFITYWISWVQQAPGKGLEWMGAIDPSDSDARYSPSFQGRVTITADTSTDTAYMELSSLRSEDTAVYYCAKSDPGYSGYSLLYGFDSWGQGTLVTVSS VL: DIVMTQTPLSSPVTLGQPASISCRSSQSLVQRNGNTYLSWYQQRPGQPPRLLIYQVSNRYSGVPDRFSGSGAGTDFTLKISRVEAEDVGVYYCGQGAHLPLTFGQGTKVEIK	0.0197
